Source: the DeepSol protein solubility set

Assay: soluble on expression in E. coli; label from the status in PepcDB or PDB records

Sequence | soluble on expression in E. coli
GPGSMWTTSMALMSKRSMKYQTKLRHRFRNPSVLPLKQTKAQRDETIRSVLQVRNINPANQSSYRYVEQRLYSTGSRLDREGVKLNTTYALQGLGDLEPLRNSKSFGFSEREALKYDSLQQAAKYEAPPVPFTPLAARKLAEGKLWPSAPEPDGMLSKEVPYLRHRANMSPSAQTFADKIAYHLRRSLKACPAHIAEQMDFAQLIIEEVIASRRSKLVYIVWATVDPAARFAMEPQLHRLNHWVQRLIMERIRTRPNIPQIAWVWNGGRLERELPRELKEEMQAYASDNSSTLEMRVRYLKEMDTVNQRMRNIPWFMPYLWSKEEKAGKTRRMRKDLEEYEQRRLAAKKDQRESERDMSGRSVAPQIGAPPAYVR | not soluble
MGSDKIHHHHHHMFTKKSRNIYKAGSLCEFAKAFFIGGIDVENVVKHALLKEVEQLMEQYIGGLKEIFLDEKIVGVYIYGSIALGAFHAETSDVDFVTVISDPVNEAEKQQLVELHKKLSGSTLGKRMDGMYIPLADLGKYNDEMNEYVYCADGKANIGHWDINAVTWWTLKNQGITVIGKEAEDLSFQIRWDDVVNTMKYNVEQYWSGKAKQPYLFFIEEWVESAVVTMGRILYTLDHKTIVSKDRGLQYLLEHSSEEWGPLLKEVERIRQNPKEKRMLSRWRRADMTKRFLLHLIETCRGKWTIQ | not soluble
MTAALHIGHLSKSFQNTPVLNDISLSLDPGEILFIIGASGCGKTTLLRCLAGFEQPDSGEISLSGKTIFSKNTNLPVRERRLGYLVQEGVLFPHLTVYRNIAYGLGNGKGRTAQERQRIEAMLELTGISELAGRYPHELSGGQQQRAALARALAPDPELILLDEPFSALDEQLRRQIREDMIAALRANGKSAVFVSHDREEALQYADRIAVMKQGRILQTASPHELYRQPADLDAALFIGEGIVFPAALNADGTADCRLGRLPVQSGAPAGTRGTLLIRPEQYSLHPHSAPAASIHAVVLKTTPKARHTEISLRAGQTVLTLNLPSAPTLSDGISAVLHLDGPALFFPGNTLEHHHHHH | soluble
MSLHILHIASSPRGERSVSLKLASRYLETLTSLHPESTVDVLDVWTIDLLPFDGPALEAKYADLQGVQMSDEQQAVWKQIHALGERFHRADVILFSVPMWNFGVPYRLKHLIDSVSQRGVLFEFDAQGMRGLLKGKNVVVFASRGVALGEDFPTEAYDHQVAYLKTWARMVGIPTIDAVLSEATLADPATAEANFTAALAEASKLAAAVQEGHHHHHH | soluble
GPGSMAIEVATSTRLQYARMLRSMLEMDRTPLDMMILGFQKIAARSETRQTRQARPVTEEEMNEYIRSRTDWKERVVVRLAWMTASRWSEIAALNPNNFKLKPDGALILDWPVVPKTARADPHRAFRFVRIRGQDAFDIIKLCRTLQENEKLTNITNAQVERALAPWDATAHSIERGALRHAAQIVEKYNLDPHVISQLAKHVNPFDLPQNTV | soluble
MSKKVAIVGAGPGGLATAIRLAGLGYQVEIFEAAERVGGRMRGFEVDSYAFDTGPTILQLPHLYKELFEEAGLNFADYVQLKRLEPYTRLKFWDGTQLDITSDLQSFKTQLATLRSDLPLAFDRWYSEHIRKYELGYKPYLAGPARSIFGYLRPDELMKFLSFRPWENLYQHFWRFFQDERLVYALSYPSKYLGMHPTVASSVFSLIPFLEFSQGVWHPVGGFRALAQGLANAAQDLGVKIHLHSPVHQIWIEQGQVRGLELADASRHQFDTVVINADFAYAVRHLLPTSARGRYTDNKLGQMQFSCSTFMLYLGINRRYEDLPHHQIYLSDNIRRLERPWVDDSALDETDPPFYVCNPTIIDPSNAPAGHSTLFVLVPIPNTSYAVDWDIKQKSYTDFILKRLHLLGYHNIEQHIVTQSCYTAQSWLDDYRVHLGAVFNLSHNLTQLGPFRPPIRSENIAGLYWIGGAVHPGSGLLTILEASRSAAGFIHQDFASTGSLEHHHHHH | not soluble
MSKTIIKNIGKIVSGDIKSPVLQADTIVVEDGLIAAIGGEELMKDAGDATIIDAAGSTVTPGLLDTHVHVSGGDYAPRQKTMDFISSALHGGVTTMISAGSPHFPGRPKDAAGTKALAITLSKSYYNARPAGVKVHGGAVILEKGLTEEDFIEMKKEGVWIVGEVGLGTIKNPEDAAPMVEWAHKHGFKVQMHTGGTSIPGSSTVTADDVIKTKPDVVSHINGGPTAISVQEVDRIMDETDFAMEIVQCGNPKIADYVARRAAEKGQLGRVIFGNDAPSGTGLIPLGILRNMCQIASMSDIDPEVAVCMATGNSTAVYGLNTGVIAPGKEADLIIMDTPLGSVAEDAMGAIAAGDIPGISVVLIDGEAVVTKSRNTPPAKRAAKIL | soluble
MCMGIFNRISNMIKAKTNSALDEMENPVELLDQKIRDMEKSFNEGKRSSAQIFGNLKDTEKKMNEAKEESAQYDEKVRLAMSKGNEELAKKALKLKLDSDKKFESLKASYEGQRAKADVLKGKLVELEKELDKTRSYRDEAVARLNNAEASKQINEVIANVQSKSNSINIDDIERSISRKESYAAGLEELKGESLDDEFAKLEELSLDDELNKYRTQNTQEDKTSDSEVDLELEKYKNKLEHHHHHH | not soluble
SSALIQTPSSLLVQTNHTAKMSCEVKSISKLTSIYWLRERQDPKDKYFEFLASWSSSKGVLYGESVDKKRNIILESSDSRRPFLSIMNVKPEDSDFYFCATVGSPKMVFGTGTKLTVVDVLPTTAPTKKTTLKMKKKKQCPFPHPETQKG | soluble
MGSDKIHHHHHHMALPTQLVYPGFEKIPRFWDNEQQSQVARVDPGEYYYSCQDEFIYTRLGSCVAACIWDPLMGIGGLNHFLLPEKVLHEDWHQLTSYSCRYGNWAMEQLINGILSAGGLKSRLKAKIFGGATLGRISVLNVGQSNIAFVREYLALEGIPVMSEDLGGPWPRKVLFHPQSGRVRLKRLEMTGMAQIEREEEAYLNDVAEHAKVPEPGSIELF | not soluble
MKIAYLGPKGSFSHHVVQTAFPHEELQAFANITDVIKAYEQGLVNYSVVPVENSIEGSVHETLDYLFHQAHIQAVAEIVQPIHQQLMVVPGHTKIEKIFSHPQALAQGKKFIDEQYPEAQIEVTASTAYAARFISEHPDQPFAAVAPRSSAEEYGLELIAEDIQEMEANFTRFWVLGAEKP | not soluble
MSLNQASLERNELHNTIWKVANELRGSVDGWDFKQYVLGILFYRYISENMTHYINKEERKRDPSFDYAKLSDEKAERGRKHLIEQKGFFIPPSALFCNALKNACHNEDLNVTLQNIFNEIEKSSLGTPSEENVKGLFADLDVNSNKLGSSHQNRVEKLTKILEAIGGMQLGDYLKSGIDVFGDAYEYLMAMYASNAGKSGGEFFTPQEVSELLAKITLHGQESVNKVYDPCCGSGSLLLQFSKVLGDKNVSKGYFGQEINLTTYNLCRINMFLHDINYSKFHIAHGDTLLDPKHEDDEPFDAIVSNPPYSTKWVGDSNPILINDERFSPAGVLAPKNAADLAFTMHMLSYLSNSGTAAIVEFPGVLYRGNAEAKIREYLVKENVIDCVIALPDNLFFGTSIATCILVLKKNKQDDTTLFIDASKEFVKEGKKNKLKERNREKILQTYIERKEIKHFCALANIEKIKENDYNLSVNRYVEQEDTKEAIDIKALNSEIAQIVEKQSALRNRLESIIKELEGGQNEGHHHHHH | soluble
MQVTSAEYLSNEESIKKGGNILMEKYNEKYNESIDGNKTLYKSYYESRRESIKNYNPDAKYINEIESIYMMLGEIYPNAPDFMSPHFEGDCSEGE | not soluble
MPLVTRNIEPRHLCRQTLPSVRSELECVTNITLANVIRQLGSLSKYAEDIFGELFTQANTFASRVSSLAERVDRLQVKVTQLDPKEEEVSLQGINTRKAFRSSTIQDQKLFDRNSLPVPVLETYNTCDTPPPLNNLTPYRDDGKEALKFYTDPSYFFDLWKEKMLQDTKDIMKEKRKHRKEKKDNPNRGNVNPRKIKTRKEEWEKMKMGQEFVESKEKLGTSGYPPTLVYQNGSIGCVENVDASSYPPPPQSDSASSPSPSFSEDNLPPPPAEFSYPVDNQRGSGLAGPKRSSVVSPSHPPPAPPLGSPPGPKPGFAPPPAPPPPPPPMIGIPPPPPPVGFGSPGTPPPPSPPSFPPHPDFAAPPPPPPPPAADYPTLPPPPLSQPTGGAPPPPPPPPPPGPPPPPFTGADGQPAIPPPLSDTTKPKSSLPAVSDARSDLLSAIRQGFQLRRVEEQREQEKRDVVGNDVATILSRRIAVEYSDSEDDSSEFDEDDWSD | soluble
MSLSRPTKFRKVDFFPKSTCFIPLGKPKCEVEEIALKIEELEAIRLKDIKELNQEECAAKMEVSRQTFQNIIDSARKKIAIALTEGNAIAIGGGNFKSKFCKFKCLDCRNTYEINCENDKHMCPSCGSNNIVCNKKTGSCENLCKEGHHHHHH | soluble
